Test [1] addresses T1, recombinant biotinylated CD38 (human, UniProt P28907 43-300, biotinylated (sites not given)).
T1 construct: also called biotinylated CD38 antigen; biotin-labelled recombinant CD38 protein
T1 sequence: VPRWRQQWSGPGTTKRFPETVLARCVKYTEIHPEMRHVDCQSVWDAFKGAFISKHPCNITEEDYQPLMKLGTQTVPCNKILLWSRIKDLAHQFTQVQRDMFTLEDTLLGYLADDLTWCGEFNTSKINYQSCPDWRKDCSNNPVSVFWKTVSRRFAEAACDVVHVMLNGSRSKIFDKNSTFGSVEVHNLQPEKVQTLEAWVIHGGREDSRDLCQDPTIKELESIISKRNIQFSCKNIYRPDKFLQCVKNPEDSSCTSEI
Nature of the test: BLI. In general terms: In BLI a coated tip is dipped into the sample, and binding shifts an interference pattern.

Test [2] deals with T1, recombinant biotinylated CD38. Nature of the test: BLI, biotinylated CD38 on streptavidin sensors, 1:1 model.
For test [3] the target is unchanged. As to the kind of experiment: biolayer interferometry; biotinylated CD38 on streptavidin sensors; 1:1 binding model.
Description: Next, the ability of the anti-CD38 nanobodies to recognise the biotinylated CD38 antigen was investigated by Biolayer Interferometry (BLI) that allows determination of the binding kinetics parameters. The binding affinities were estimated by testing different concentrations (seven) of nanobodies with BLI. These experiments were realised in a 96-well plate and consisted of different steps. First, recombinant and biotinylated CD38 (10 μg/mL) was loaded on the surface of streptavidin-coupled sensors and washed using a PBS-based buffer (PBS 50 mM pH 7, BSA 0.1%, Tween 0.02%) in order to remove any unbound CD38. Then, biocytin was added to saturate the sensors and to avoid non-specific interactions during the subsequent association step. Afterwards, the nanobodies were diluted at concentrations and brought in contact with the CD38 coated sensors to monitor the association of the nanobodies to the receptors. […] Octet Data Analysis software version 8.0 was used for curve fitting and the determination of the binding parameters, including the KD, using a 1:1 binding model.
For test [4] the target is unchanged. As to the kind of experiment: BLI, immobilised CD38 on SA sensors, OctetHTX, conjugate 100 to 20 nM.
Description: Values are from a serial dilution of conjugate from 100 to 20 nM.
In test [5] the target is T2, human CD38 receptor expressed on cells (RPMI-8226 and other CD38+ cell lines) (human, UniProt P28907 1-300).
T2 construct: Endogenous CD38 of human myeloma and lymphoma cell lines; also called CD38^+ RPMI-8226 cells
T2 sequence: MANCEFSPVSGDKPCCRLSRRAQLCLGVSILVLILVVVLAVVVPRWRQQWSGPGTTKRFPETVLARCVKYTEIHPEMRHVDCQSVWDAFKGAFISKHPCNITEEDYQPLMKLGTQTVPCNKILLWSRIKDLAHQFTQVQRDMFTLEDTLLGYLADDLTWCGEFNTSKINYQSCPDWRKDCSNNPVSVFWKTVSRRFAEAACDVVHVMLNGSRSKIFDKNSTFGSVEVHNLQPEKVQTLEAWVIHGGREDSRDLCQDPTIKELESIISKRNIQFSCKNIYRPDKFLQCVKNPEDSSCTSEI
Nature of the test: saturation binding of the radiolabelled nanobody on CD38+ RPMI-8226 cells, 1 hour at 4 °C.

For test [6], the target named is T1, recombinant biotinylated CD38. As to the kind of experiment: BLI, biotinylated CD38 on streptavidin sensors, 10 to 150 nM conjugate, 1:1 model.
Description: First, recombinant and biotinylated CD38 (1 μg/mL) was loaded on the surface of streptavidin-coupled sensors and washed using a PBS-based buffer in order to remove any unbound CD38. Then, biocytin was added to saturate the sensors and to avoid non-specific interactions during the subsequent association step. Afterwards, the nanobodies-PNA1 were diluted at concentrations and brought in contact with the CD38 coated sensors to monitor the association of the nanobodies to the receptors. Finally, the sensors were placed in a fresh buffer in order to measure the dissociation rate of the nanobodies-PNA1 from the receptors. Octet Data Analysis software version 8.0 was used for curve fitting and the determination of the binding parameters, including the KD, using a 1:1 binding model.

B1: anti-CD38 nanobody 2F8 (Nb2F8) with C-terminal hexahistidine tag (VHH)
VHH: QVQLVESGGGSVQAGGSLRLSCAASGYTDSDYIMAWFRQAPGKEREVVATIYIGGTYIHYADSVKGRFTISRDNAENTVYLQMNNLKPEDTAMYYCAATKWRPFISTRAAEYNYWGQGTLVTVSS
notes: Produced in E. coli WK6 with a His6 tag and also in an untagged form; The flow cytometry used the His-tagged form (anti-His detection); also called sdAb 2F8
Consider B1, for which the equilibrium dissociation constant (Kd) (usually the concentration at which binding is half-saturated) came to 1.46 nM in test [1], 0.73 nM in test [2] and 0.734 nM in test [3].

B2: sdAb 2F8 conjugated to the bifunctional chelator DTPA (2F8-DTPA) (VHH)
VHH: QVQLVESGGGSVQAGGSLRLSCAASGYTDSDYIMAWFRQAPGKEREVVATIYIGGTYIHYADSVKGRFTISRDNAENTVYLQMNNLKPEDTAMYYCAATKWRPFISTRAAEYNYWGQGTLVTVSS
modifications: CHX-A''-DTPA conjugated to the free epsilon-amino groups of lysines (number and positions not stated)
notes: also called Nb2F8-DTPA conjugate
Regarding B2, in test [4], the Kd is 1.6 nM; the koff (in general, the rate constant with which the complex falls apart) was 0.000412 s⁻¹; the kon (usually the rate constant with which the complex forms) was determined as 258000 M⁻¹ s⁻¹.

B3: ^111In-DTPA-Nb2F8 (VHH)
VHH: QVQLVESGGGSVQAGGSLRLSCAASGYTDSDYIMAWFRQAPGKEREVVATIYIGGTYIHYADSVKGRFTISRDNAENTVYLQMNNLKPEDTAMYYCAATKWRPFISTRAAEYNYWGQGTLVTVSS
modifications: CHX-A''-DTPA on lysine epsilon-amino groups (positions not stated), chelating Indium-111
B3 showed a dissociation constant (Kd) in test [5] of 16.7 nM.

B4: Nb2F8-PNA1 conjugate (VHH)
VHH: QVQLVESGGGSVQAGGSLRLSCAASGYTDSDYIMAWFRQAPGKEREVVATIYIGGTYIHYADSVKGRFTISRDNAENTVYLQMNNLKPEDTAMYYCAATKWRPFISTRAAEYNYWGQGTLVTVSS
modifications: the C-terminal GGGSS is continued by the peptide nucleic acid a-g-t-c-t-g-g-a-t-g-t-a-g-t-c (SEQ ID NO: 15) and then E-K(DOTA)-AEEA-E-NH2
notes: Made by Sortase A ligation of PNA1 to Nb2F8-FL-SR-His6 and purified by reverse IMAC; also called nanobody 2F8 coupled with the PNA1
Turning to B4, in test [6], the Kd came to 13.4 nM.

Source of the values: US20240261446A1 (UNIVERSIT DE LI GE, published 2024).
